Results as given in article PMC3040777, “Purification and Characterization of the RecA Protein from Neisseria gonorrhoeae”.

Tests used:
SSBEc = SSBEc (Escherichia coli, UniProt P0AGE0 1-178); assay: EMSA; 50 uM nucleotides ssDNA; SSB 10 nM-10 uM; fully bound at 1/10 SSB; affinity similar to SSBNg; EMSA: 20 mM Tris-Cl 39% cation (pH 8.3), 0.5 M NaCl, 1 mM EDTA, 50% glycerol, 10 min at 37 C; 4% native PAGE at 4 C; details: protein: recombinant; chain copies: 4; label: 5'-6FAM; single strand
SSBNg = molecular target: T1, SSBNg (Neisseria gonorrhoeae, UniProt Q5F7Y0 1-174); assay: EMSA; 50 uM nucleotides ssDNA; SSB 10 nM-10 uM; fully bound at 1/10 SSB; affinity similar to SSBEc; EMSA: 20 mM Tris-Cl 39% cation (pH 8.3), 0.5 M NaCl, 1 mM EDTA, 50% glycerol, 10 min at 37 C; 4% native PAGE at 4 C; details: protein: recombinant; tags: none stated (pET21a, native purification); chain copies: 4; label: 5'-6FAM; single strand
T1 sequence: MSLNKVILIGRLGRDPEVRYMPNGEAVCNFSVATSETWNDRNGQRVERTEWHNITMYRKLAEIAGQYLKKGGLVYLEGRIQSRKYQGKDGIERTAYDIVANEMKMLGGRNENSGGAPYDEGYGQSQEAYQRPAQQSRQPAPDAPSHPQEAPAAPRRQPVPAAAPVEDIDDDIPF

Sequence of SSBEc (P0AGE0 whole entry): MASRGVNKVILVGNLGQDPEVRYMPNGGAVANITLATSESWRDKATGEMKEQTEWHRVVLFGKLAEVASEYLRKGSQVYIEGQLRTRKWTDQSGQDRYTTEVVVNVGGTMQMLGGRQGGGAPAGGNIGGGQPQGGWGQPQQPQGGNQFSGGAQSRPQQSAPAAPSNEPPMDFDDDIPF

TGCCTCGCGGTAGCTCTTCTCGGAGCGCACGATTCGCACTGCTGATGTTC (ssDNA) [OCN324 50-mer]: binds (SSBEc); binds (SSBNg).
